In assay [1] the target is T1, human Fn14 (human) (UniProt Q9NP84).
T1 sequence: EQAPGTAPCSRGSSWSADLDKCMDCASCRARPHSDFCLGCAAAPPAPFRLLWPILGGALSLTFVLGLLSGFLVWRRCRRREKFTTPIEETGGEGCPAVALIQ
As to the kind of experiment: cell-based or functional assay.

In assay [2] the target is T2, Histidine tagged hFn14 extracellular domain, bacterially expressed (human) (UniProt Q9NP84).
T2 sequence: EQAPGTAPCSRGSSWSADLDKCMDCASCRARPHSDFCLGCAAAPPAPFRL
As to the kind of experiment: SPR (ProteOn XPR36), mAb coupled to chip, His-tagged hFn14 analyte, Langmuir 1:1 fit.

The target in assay [3] is synthetic peptide hFn14 sub-domain 2 (human). Put plainly: ELISA on biotinylated sub-domain 2 peptide, mAb at 5 ng/ml.
Sequence of synthetic peptide hFn14 sub-domain 2 (human) (peptide, as listed by the source): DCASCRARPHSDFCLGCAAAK
Assay [4] addresses T3, synthetic peptide hFn14 sub-domain 3 (human).
T3 sequence (peptide, biotin on the added C-terminal lysine): ASCRARPHSDFCLGK
As to the kind of experiment: ELISA on biotinylated sub-domain 3 peptide, mAb at 0.2 ug/ml. A general note: ELISA stands for enzyme-linked immunosorbent assay.

B1: ITEM-4 (antibody, from another filing, V domains shown)
VH: QVQLQQSGPELVKPGASVKMSCKASGYTFTDFIIAWVKQRTGQGLEWIGEIYPGTGRTYYSEKFRGKATLTADKSSNTAYMQLSSLTSVDSAVYFCARRTIYYDYDGDYWGQGTTLTVSS
VL: DIVMTQAAFSNPVTLGTSASISCRSSKSLLHSNGITYLYWYLQKPGQSPQLLIYQMSNLASGVPDRFSSSGSGTDFTLRISRVEAEDVGVYYCAHNLELPWTFGGGTKLELK
In assay [1], B1 displayed a % Agonist, IL-8 secretion by A375 cells of 8% and a % Antagonist, IL-8 secretion by A375 cells of 97%. In assay [2], the Kd came out at 1.68 nM, the koff is 0.000864 s⁻¹ and the kon is 510000 M⁻¹ s⁻¹.

B2: ITEM-1 (antibody, from another filing, V domains shown)
VH: EVKLEESGGGLVQPGGSMKLSCVASGFSFSNYWMNWVRQSPEKGLEWVAEIRLKSNNYATHYAESVKGRFTISRHDSKSSVYLQMNNLRAEDTGIYYCTRAYADYFDYWGQGTTLTVSS
VL: DIVLTQSPASLVVSLGQRATISCRASQSVSTSTYSYMHWYQQKPGQPPKILIKYASNLESGVPARFSGSGSGTDFTLNIHPVEEEDTATYYCQHSWEIPYTFGGGTKLEIKR
B2: in assay [1], the % Agonist, IL-8 secretion by A375 cells was found to be 21% and the % Antagonist, IL-8 secretion by A375 cells came out at 9%. This molecule also gave a % decrease in binding compared to CRCBT-06-001 and CRCBT-06-002 in assay [3] of 68%. This molecule came in with a % decrease in binding compared with CRCBT-06-005 in assay [4] of 76%. In assay [2], this molecule returned a Kd of 4.1 nM, an off-rate (koff) of 0.00147 s⁻¹ and a kon of 358000 M⁻¹ s⁻¹.

Usually Kd stands for a measure of binding affinity in units of concentration. As a reminder, the koff is a measure of how fast the partners let go of each other. Usually kon stands for a measure of how fast the partners come together. Low values mean slow association, high ones fast association.
